Assay results: the supplement of paper PMC10201428
± gives the standard deviation of the averaged measurements.

Tested on: VchCAST RNA-guided transposition machinery (E. coli BL21(DE3) host, lacZ target)
Assay: relative integration efficiency (T-RL orientation) vs wild-type transposon end (log2 (normalized fold change)); transposon end mutated: right end (5 bp flank + 75 bp right end); higher = more efficient transposition
Protocol: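 Pooled, barcoded VchCAST (Tn6677) mini-transposon donor libraries; each variable transposon-end sequence sits in a fixed pDonor mini-transposon context (10-bp barcode and cargo not included). Left- or right-end libraries were co-transformed with pEffector (TniQ-Cascade, TnsABC, lacZ crRNA, T7, 0.1 mM IPTG) into E. coli BL21(DE3) and grown 18 h at 37 C. T-LR and T-RL junction amplicons were sequenced; output/input barcode fold change was normalised to the mean of four wild-type barcodes and log2-transformed. Two biological replicates; zero-count/undetected variants carry floor values (-10 / -15), censored here. Barcode uncoupling by PCR recombination adds noise.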

Row | Sequence | relative integration efficiency (log2)
1 | ACAAAACTTGATACAACCATAAAATGATAATTACACCCATAAATTGATAATTATCACACCCATAAATTGATATTGCCTCTGATCATAGTCAGACCAACATTGCTACGACCCGTATTCGCACCGACAC | -6.59 ± 0.45
2 | ACAGGGTTTGATACAACCATAAAATGATAATTACACCCATAAATTGATAATTATCACACCCATAAATTGATATTGCCTCTGATCATAGTCAGACCAACATTGCTACGACCCGTATTCGCACCGACAC | -7.26 ± 0.17
3 | ACATAACATGATACAACCATAAAATGATAATTACACCCATAAATTGATAATTATCACACCCATAAATTGATATTGCCTCTGATCATAGTCAGACCAACATTGCTACGACCCGTATTCGCACCGACAC | -5.71 ± 0.74
4 | ACATGGTGTGATACAACCATAAAATGATAATTACACCCATAAATTGATAATTATCACACCCATAAATTGATATTGCCTCTGATCATAGTCAGACCAACATTGCTACGACCCGTATTCGCACCGACAC | -6.87 ± 0.18
5 | ACATTACTTGATACAACCATAAAATGATAATTACACCCATAAATTGATAATTATCACACCCATAAATTGATATTGCCTCTGATCATAGTCAGACCAACATTGCTACGACCCGTATTCGCACCGACAC | -6.45 ± 0.27
6 | ACATTAGTCGATACAACCATAAAATGATAATTACACCCATAAATTCATAATTATCACACCCAATTTAACTATAACGCTCTGATCATAGTCAGACCAACATTGCTACGACCCGTATTCGCACCGACAC | -7.36 ± 0.82
7 | ACATTAGTGGATACAACCATAAAATGATAATTACACCCATAAATGGATCATTATCACACCCAATTTAACTATAACGCTCTGATCATAGTCAGACCAACATTGCTACGACCCGTATTCGCACCGACAC | -6.91 ± 0.47
8 | ACATTAGTTCATACAACCATAAAATGATAATTACACCCATAAATTCATAATTATCACACCCAATTTAACTATAACGCTCTGATCATAGTCAGACCAACATTGCTACGACCCGTATTCGCACCGACAC | -6.79 ± 0.48
9 | ACATTAGTTCATACAACCATAAAATGATAATTACACCCATAAATTGATAATTATCACACCCAATTTAACTATAACGCTCTGATCATAGTCAGACCAACATTGCTACGACCCGTATTCGCACCGACAC | -7.98 ± 0.089
10 | ACATTAGTTCATACAACCATAAAATGATAATTACACCCATAAATTGATCATTATCACACCCAATTTAACTATAACGCTCTGATCATAGTCAGACCAACATTGCTACGACCCGTATTCGCACCGACAC | -7.24 ± 0.69
11 | ACATTGGTCGATACAACCATAAAATGATAATTACACCCATAAATGGATAATTATCACACCCAATTTAACTATAACGCTCTGATCATAGTCAGACCAACATTGCTACGACCCGTATTCGCACCGACAC | -7.16 ± 0.89
12 | ACATTGGTCGATACAACCATAAAATGATAATTACACCCATAAATGGATCATTATCACACCCAATTTAACTATAACGCTCTGATCATAGTCAGACCAACATTGCTACGACCCGTATTCGCACCGACAC | -7.2 ± 0.28
13 | ACATTGGTGGATACAACCATAAAATGATAATTACACCCATAAATTGATAATTATCACACCCAATTTAACTATAACGCTCTGATCATAGTCAGACCAACATTGCTACGACCCGTATTCGCACCGACAC | -6.88 ± 0.39
14 | ACATTGGTTCATACAACCATAAAATGATAATTACACCCATAAATGGATCATTATCACACCCAATTTAACTATAACGCTCTGATCATAGTCAGACCAACATTGCTACGACCCGTATTCGCACCGACAC | -7.4 ± 0.26
15 | ACATTGGTTCATACAACCATAAAATGATAATTACACCCATAAATTGATCATTATCACACCCAATTTAACTATAACGCTCTGATCATAGTCAGACCAACATTGCTACGACCCGTATTCGCACCGACAC | -7.14 ± 0.11
16 | ACATTGTGGGATACAACCATAAAATGATAATTACACCCATAAATTGATAATTATCACACCCATAAATTGATATTGCCTCTGATCATAGTCAGACCAACATTGCTACGACCCGTATTCGCACCGACAC | -5.61 ± 0.22
17 | ACATTTCAACATACAACCATAAAATGATAATTACACCCATAAATTGATAATTATCACACCCATAAATTGATATTGCCTCTGATCATAGTCAGACCAACATTGCTACGACCCGTATTCGCACCGACAC | -6.21 ± 0.12
18 | ACATTTGAACTTACAACCATAAAATGATAATTACACCCATAAATTGATAATTATCACACCCATAAATTGATATTGCCTCTGATCATAGTCAGACCAACATTGCTACGACCCGTATTCGCACCGACAC | -5.07 ± 0.78
19 | ACATTTGTAAAAAAAACCATACGTTGATTTTACGAAACCATACGCTGAAATAAAAACAACCATACCTTGAAATTGCTTATGATCATAGTCAGACCAACATTGCTACGACCCGTATTCGCACCGACAC | -8.13 ± 1.3
20 | ACATTTGTAAAAAAAACCATACGTTGATTTTACGAAACCATACGCTGAAATAATCACAACCATAAATTGATATTGCCTCTGATCATAGTCAGACCAACATTGCTACGACCCGTATTCGCACCGACAC | -6.87 ± 0.53
21 | ACATTTGTAAAAAAAACCATACGTTGATTTTACGAAACCATACGCTGAAATAATCACAACCATACCTTGAAATTGCCTCTGATCATAGTCAGACCAACATTGCTACGACCCGTATTCGCACCGACAC | -7.16 ± 0.43

Row | Sequence | relative integration efficiency (log2)
22 | ACATTTGTAAAAAAAACCATACGTTGATTTTACGAAACCATACGCTGAAATAATCACACCCATAAATTGAAATTGCCTCTGATCATAGTCAGACCAACATTGCTACGACCCGTATTCGCACCGACAC | -5.81 ± 0.093
23 | ACATTTGTAAAAAAAACCATACGTTGATTTTACGAAACCATACGCTGAAATAATCACACCCATAAATTGATATTGCCTCTGATCATAGTCAGACCAACATTGCTACGACCCGTATTCGCACCGACAC | -7.11 ± 0.15
24 | ACATTTGTTAATAAAACCATACGTTGATTTTACGAAACCATACGCTGAAATAATCACACCCATAAATTGATATTGCCTCTGATCATAGTCAGACCAACATTGCTACGACCCGTATTCGCACCGACAC | -6.57 ± 0.26
25 | ACATTTGTTCAACCATAAAATGATAATTACACCCATAAATTGATAATTATCACACCCATAAATTGATATTGCCTCTGATCATAGTCAGACCAACATTGCTACGACCCGTATTCGCACCGACACTGAC | -7.3 ± 0.12
26 | ACATTTGTTCATACAACCCTAAAATGATAATTACACCCATAAATTCATAATTATCACCCCCAATTTAACTATAACGCTCTGATCATAGTCAGACCAACATTGCTACGACCCGTATTCGCACCGACAC | -5.3 ± 0.43
27 | ACATTTGTTGAAAAAACCATACGTTGATTTTACGAAACCATACGCTGAAATAATCACACCCATAAATTGATATTGCCTCTGATCATAGTCAGACCAACATTGCTACGACCCGTATTCGCACCGACAC | -6.48 ± 0.15
28 | ACATTTGTTGATAACCAACGCCCCGTCGCCGGCACAAACGCCCGGTCGCCGGCGACACAAACGCCCGGTCGCGGTAAGAGGATCATAGTCAGACCAACATTGCTACGACCCGTATTCGCACCGACAC | -6.24 ± 0.19
29 | ACATTTGTTGATAACCAACGCCCCGTCGCCGGCCACCCATAAATTGATAATTATCACACCCATAAATTGATATTGCCTCTGATCATAGTCAGACCAACATTGCTACGACCCGTATTCGCACCGACAC | -7.56 ± 0.64
30 | ACATTTGTTGATACAACACGCCCCGTCGCCGGCACAAACGCCCGGTCGCCGGCGACACAAACGCCCGGTCGCGGTAAGAGGATCATAGTCAGACCAACATTGCTACGACCCGTATTCGCACCGACAC | -6.42 ± 0.17
31 | ACATTTGTTGATACAACCATAAAATGATAATTAATAATTATTTATAATCAGCAACACCCATAAATTGATAATTATCACACCCATAAATTGATATTGCCTCTGATCATAGTCAGACCAACATTGCTAC | -3.61 ± 0.38
32 | ACATTTGTTGATACAACCATAAAATGATAATTAATAATTATTTATAATCAGCAACTTAACCACAAAACACCCATAAATTGATAATTAACAAAACACCCATAAATTGATATTGCTGTGAATCGAGTAT | -5.86 ± 0.28
33 | ACATTTGTTGATACAACCATAAAATGATAATTAATAATTATTTATAATCAGCAACTTAACCACAAAACACCCATAAATTGATAATTAACAAACACCCATAAATTGATATTGCCTCTGATCATAGTCA | -5.35 ± 0.69
34 | ACATTTGTTGATACAACCATAAAATGATAATTAATAATTATTTATAATCAGCAACTTAACCACAAAACACCCATAAATTGATAATTAACACACCCATAAATTGATATTGCCTCTGATCATAGTCAGA | -5.33 ± 0.24
35 | ACATTTGTTGATACAACCATAAAATGATAATTAATAATTATTTATAATCAGCAACTTAACCACAAAACACCCATAAATTGATAATTATCACACCCATAAATTGATATTGCCTCTGATCATAGTCAGA | -4.6 ± 1
36 | ACATTTGTTGATACAACCATAAACGTCGCCGGCACAAACGCCCGGTCGCCGGCGACACAAACGCCCGGTCGCGGTAAGAGGATCATAGTCAGACCAACATTGCTACGACCCGTATTCGCACCGACAC | -6.69 ± 0.61
37 | ACATTTGTTGATACAACCATACCCGGATAATTACACCCATACCGGGATAATTATCACACCCATACCGGGATATTGCCTCTGATCATAGTCAGACCAACATTGCTACGACCCGTATTCGCACCGACAC | -6.7 ± 0.28
38 | ACATTTGTTGATACAACCATACCCGTATAATTACACCCATACCGGTATAATTATCACACCCATACCGGTATATTGCCTCTGATCATAGTCAGACCAACATTGCTACGACCCGTATTCGCACCGACAC | -8.04 ± 1.3
39 | ACATTTGTTGATACAACCATATTTACATAATTACACCCATATTAACATAATTATCACACCCATATTAACATATTGCCTCTGATCATAGTCAGACCAACATTGCTACGACCCGTATTCGCACCGACAC | -7.03 ± 0.43
40 | ACATTTGTTGATACAACCATCCCCGTCGCCGGCACAAACGCCCGGTCGCCGGCGACACAAACGCCCGGTCGCGGTAAGAGGATCATAGTCAGACCAACATTGCTACGACCCGTATTCGCACCGACAC | -7.485 ± 0.063
41 | ACATTTGTTGATACAACCCGCCCCGTCGCCGGCACAAACGCCCGGTCGCCGGCGACACAAACGCCCGGTCGCGGTAAGAGGATCATAGTCAGACCAACATTGCTACGACCCGTATTCGCACCGACAC | -8.51 ± 0.73
